B1: Ubiquitin-like modifier-activating enzyme ATG7 (Saccharomyces cerevisiae), P38862 (parent)
chain: MSSERVLSYAPAFKSFLDTSFFQELSRLKLDVLKLDSTCQPLTVNLDLHNIPKSADQVPLFLTNRSFEKHNNKRTNEVPLQGSIFNFNVLDEFKNLDKQLFLHQRALECWEDGIKDINKCVSFVIISFADLKKYRFYYWLGVPCFQRPSSTVLHVRPEPSLKGLFSKCQKWFDVNYSKWVCILDADDEIVNYDKCIIRKTKVLAIRDTSTMENVPSALTKNFLSVLQYDVPDLIDFKLLIIRQNEGSFALNATFASIDPQSSSSNPDMKVSGWERNVQGKLAPRVVDLSSLLDPLKIADQSVDLNLKLMKWRILPDLNLDIIKNTKVLLLGAGTLGCYVSRALIAWGVRKITFVDNGTVSYSNPVRQALYNFEDCGKPKAELAAASLKRIFPLMDATGVKLSIPMIGHKLVNEEAQHKDFDRLRALIKEHDIIFLLVDSRESRWLPSLLSNIENKTVINAALGFDSYLVMRHGNRDEQSSKQLGCYFCHDVVAPTDSLTDRTLDQMCTVTRPGVAMMASSLAVELMTSLLQTKYSGSETTVLGDIPHQIRGFLHNFSILKLETPAYEHCPACSPKVIEAFTDLGWEFVKKALEHPLYLEEISGLSVIKQEVERLGNDVFEWEDDESDEIA
partner: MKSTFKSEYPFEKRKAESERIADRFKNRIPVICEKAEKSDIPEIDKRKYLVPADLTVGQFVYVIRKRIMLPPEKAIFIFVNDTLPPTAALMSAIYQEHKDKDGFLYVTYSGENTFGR
B2: Autophagy-related protein 8 (Saccharomyces cerevisiae), P38182 (parent)
chain: B1 partner
partner: B1 chain
B3: Autophagy-related protein 8 (Saccharomyces cerevisiae), P38182 (parent)
chain: B1 partner
partner: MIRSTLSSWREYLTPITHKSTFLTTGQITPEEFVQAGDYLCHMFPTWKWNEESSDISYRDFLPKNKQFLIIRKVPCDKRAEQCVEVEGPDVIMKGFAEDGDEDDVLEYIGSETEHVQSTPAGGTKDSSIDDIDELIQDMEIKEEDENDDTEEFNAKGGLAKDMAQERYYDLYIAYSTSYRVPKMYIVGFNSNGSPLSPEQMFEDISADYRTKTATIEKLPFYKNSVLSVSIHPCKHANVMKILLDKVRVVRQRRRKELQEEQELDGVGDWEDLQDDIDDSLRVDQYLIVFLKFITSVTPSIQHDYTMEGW

Variants of: B1
Details: with atg8_yeast ATG8, P38182

Variant | effect of a mutation on the interaction
E612R | decreasing interaction strength
E612Q | decreasing interaction strength
E612A | decreasing interaction strength

Variants of: B2
Details: with atg7_yeast ATG7, P38862

Variant | effect of a mutation on the interaction
MKSTFKSEYPFEKRKAESERIADRFKNRIPVICEKAEKSDIPEIDKRKYLVPADLTVGQFVAVIRARIMLPPEKAIFIFVNDTLPPTAALMSAIYQEHKDKDGFLYVTYSGENTFGR [Y62A;K66A] | disrupting interaction
MKSTFKSEYPFEKRKAESERIADRFKNRIPVICEKAEKSDIPEIDKRKYLVPADLTVGQFVAVIRKRIMLPPEKAIFIFVNDTLPPTAALMSAIYQEHKDKDGFLYVTYSGENTFGR [Y62A] | disrupting interaction strength
MKSTFKSEYPFEKRKAESERIADRFKNRIPVICEKAEKSDIPEIDKRKYLVPADLTVGQFVKVIRKRIMLPPEKAIFIFVNDTLPPTAALMSAIYQEHKDKDGFLYVTYSGENTFGR [Y62K] | disrupting interaction strength
MKSTFKSEYPFEKRKAESERIADRFKNRIPVICEKAEKSDIPEIDKRKYLVPADLTVGQFVYVIRERIMLPPEKAIFIFVNDTLPPTAALMSAIYQEHKDKDGFLYVTYSGENTFGR [K66E] | decreasing interaction strength
MKSTFKSEYPFEKRKAESERIADRFKNRIPVICEKAEKSDIPEIDKRKYLVPADLTVGQFVYVIRARIMLPPEKAIFIFVNDTLPPTAALMSAIYQEHKDKDGFLYVTYSGENTFGR [K66A] | decreasing interaction strength

Variants of: B2
Details: with atg7_yeast ATG7, P38862
Remark: another data set of the same source

Variant | effect of a mutation on the interaction
MKSTFKSEYPFEKRKAESERIADRFKNRIPVICEKAEKSDIPEIDKRKYLVPADLTVGQFVKVIRKRIMLPPEKAIFIFVNDTLPPTAALMSAIYQEHKDKDGFLYVTYSGENTFGR [Y62K] | disrupting interaction

Variants of: B3
Details: with atg3_yeast ATG3, P40344

Variant | effect of a mutation on the interaction
MKSTFKSEYPFEKRKAESERIADRFKNRIPVICEKAEKSDIPEIDKRKYLVPADLTVGQFVKVIRKRIMLPPEKAIFIFVNDTLPPTAALMSAIYQEHKDKDGFLYVTYSGENTFGR [Y62K] | disrupting interaction

Reference: IntAct's records for PubMed 22056771
